Consider two molecules from publication PMC3378891.

Holding throughout (assay): EMSA
The target of series [1] is T1, FANCI (chicken, UniProt B0I564 1-1338).
T1 sequence: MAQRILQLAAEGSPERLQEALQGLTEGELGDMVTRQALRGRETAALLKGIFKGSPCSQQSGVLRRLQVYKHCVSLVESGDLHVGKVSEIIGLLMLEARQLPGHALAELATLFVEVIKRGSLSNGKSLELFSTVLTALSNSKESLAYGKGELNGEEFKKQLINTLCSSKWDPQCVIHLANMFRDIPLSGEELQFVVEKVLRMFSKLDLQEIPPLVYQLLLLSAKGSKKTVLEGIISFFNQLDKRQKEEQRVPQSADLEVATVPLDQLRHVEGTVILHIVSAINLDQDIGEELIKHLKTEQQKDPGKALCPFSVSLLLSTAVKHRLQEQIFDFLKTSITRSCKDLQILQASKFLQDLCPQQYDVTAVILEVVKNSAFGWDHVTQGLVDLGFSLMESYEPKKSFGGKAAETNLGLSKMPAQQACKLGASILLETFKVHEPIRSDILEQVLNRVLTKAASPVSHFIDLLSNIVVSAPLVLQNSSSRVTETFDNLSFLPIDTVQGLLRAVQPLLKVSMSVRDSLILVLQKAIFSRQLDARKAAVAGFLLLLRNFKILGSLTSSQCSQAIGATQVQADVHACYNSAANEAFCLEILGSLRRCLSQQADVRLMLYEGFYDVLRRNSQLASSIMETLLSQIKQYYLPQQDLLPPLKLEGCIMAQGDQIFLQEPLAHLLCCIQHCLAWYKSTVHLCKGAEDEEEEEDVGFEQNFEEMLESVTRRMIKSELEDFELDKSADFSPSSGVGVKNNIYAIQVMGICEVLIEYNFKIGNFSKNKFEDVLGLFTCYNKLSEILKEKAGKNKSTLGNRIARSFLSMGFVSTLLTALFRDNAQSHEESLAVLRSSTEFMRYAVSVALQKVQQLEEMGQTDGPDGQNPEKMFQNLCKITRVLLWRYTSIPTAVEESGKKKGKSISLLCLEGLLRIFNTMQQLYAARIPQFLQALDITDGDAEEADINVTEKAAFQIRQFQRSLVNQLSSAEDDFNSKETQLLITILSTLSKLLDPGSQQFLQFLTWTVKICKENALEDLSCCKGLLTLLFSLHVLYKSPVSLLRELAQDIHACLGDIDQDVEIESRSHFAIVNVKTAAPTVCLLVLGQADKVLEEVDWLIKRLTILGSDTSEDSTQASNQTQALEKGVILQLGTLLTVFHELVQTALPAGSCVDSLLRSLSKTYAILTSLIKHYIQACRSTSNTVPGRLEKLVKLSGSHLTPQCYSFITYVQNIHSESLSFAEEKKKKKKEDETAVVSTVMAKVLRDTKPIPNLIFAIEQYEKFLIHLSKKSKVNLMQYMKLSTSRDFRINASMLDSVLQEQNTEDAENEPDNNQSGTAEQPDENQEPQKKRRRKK

For series [2], the target named is FANCI;FANCD2 (chicken;chicken, UniProt B0I564;Q68Y81 1-1338;1-1439, |).
Sequence of FANCI;FANCD2 (Q68Y81 whole entry, one chain of several): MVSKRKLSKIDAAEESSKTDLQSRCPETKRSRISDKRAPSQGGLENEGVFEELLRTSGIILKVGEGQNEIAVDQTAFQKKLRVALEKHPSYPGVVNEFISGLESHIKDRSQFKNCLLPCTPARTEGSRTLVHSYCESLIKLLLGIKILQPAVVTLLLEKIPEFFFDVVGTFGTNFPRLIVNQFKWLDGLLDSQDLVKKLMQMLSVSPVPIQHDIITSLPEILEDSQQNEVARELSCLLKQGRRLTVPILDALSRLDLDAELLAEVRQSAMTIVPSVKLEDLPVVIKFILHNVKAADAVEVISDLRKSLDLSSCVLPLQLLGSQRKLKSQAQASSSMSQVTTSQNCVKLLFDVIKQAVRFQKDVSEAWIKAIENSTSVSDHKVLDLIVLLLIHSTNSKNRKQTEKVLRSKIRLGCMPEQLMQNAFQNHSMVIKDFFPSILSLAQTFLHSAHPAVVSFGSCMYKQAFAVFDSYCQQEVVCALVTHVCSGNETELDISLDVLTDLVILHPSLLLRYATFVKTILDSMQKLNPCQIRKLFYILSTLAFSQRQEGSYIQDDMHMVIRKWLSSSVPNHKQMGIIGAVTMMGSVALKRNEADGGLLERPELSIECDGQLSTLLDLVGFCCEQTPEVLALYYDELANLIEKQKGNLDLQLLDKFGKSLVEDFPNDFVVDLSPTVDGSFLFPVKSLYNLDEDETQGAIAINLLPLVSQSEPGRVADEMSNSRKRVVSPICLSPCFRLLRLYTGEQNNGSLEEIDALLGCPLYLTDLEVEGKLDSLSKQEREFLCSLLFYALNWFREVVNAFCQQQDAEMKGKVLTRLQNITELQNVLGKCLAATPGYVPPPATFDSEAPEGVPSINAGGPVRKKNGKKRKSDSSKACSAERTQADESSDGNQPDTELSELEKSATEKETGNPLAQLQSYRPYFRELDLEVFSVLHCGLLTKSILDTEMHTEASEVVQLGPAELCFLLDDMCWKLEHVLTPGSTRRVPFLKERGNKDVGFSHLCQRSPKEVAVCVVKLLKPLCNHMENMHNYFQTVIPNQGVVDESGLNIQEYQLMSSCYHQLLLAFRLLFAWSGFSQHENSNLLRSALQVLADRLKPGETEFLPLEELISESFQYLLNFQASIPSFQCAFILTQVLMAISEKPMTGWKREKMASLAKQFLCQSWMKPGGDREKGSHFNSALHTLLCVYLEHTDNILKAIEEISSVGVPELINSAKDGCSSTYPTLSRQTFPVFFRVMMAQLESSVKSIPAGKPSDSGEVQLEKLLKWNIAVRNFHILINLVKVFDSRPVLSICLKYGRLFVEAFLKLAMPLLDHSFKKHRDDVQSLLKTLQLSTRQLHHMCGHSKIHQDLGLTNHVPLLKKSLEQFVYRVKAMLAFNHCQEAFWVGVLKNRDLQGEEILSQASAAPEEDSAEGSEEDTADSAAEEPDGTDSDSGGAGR
For series [3], the target named is T2, GST-FANCL (chicken, UniProt Q3MUH5 1-373).
T2 sequence: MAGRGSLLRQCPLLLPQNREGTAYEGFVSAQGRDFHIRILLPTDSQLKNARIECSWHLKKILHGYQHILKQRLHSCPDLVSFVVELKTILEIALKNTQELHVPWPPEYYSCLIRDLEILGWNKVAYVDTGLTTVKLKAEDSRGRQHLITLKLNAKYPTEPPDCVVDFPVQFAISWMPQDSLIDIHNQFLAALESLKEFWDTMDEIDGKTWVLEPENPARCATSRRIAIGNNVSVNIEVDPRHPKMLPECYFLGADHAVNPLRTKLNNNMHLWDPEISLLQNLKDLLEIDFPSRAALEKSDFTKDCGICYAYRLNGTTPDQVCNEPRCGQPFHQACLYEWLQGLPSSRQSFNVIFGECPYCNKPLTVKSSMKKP

The target in series [4] is UBE2T (human, UniProt Q9NPD8 1-197).
Sequence of UBE2T (Q9NPD8 whole entry): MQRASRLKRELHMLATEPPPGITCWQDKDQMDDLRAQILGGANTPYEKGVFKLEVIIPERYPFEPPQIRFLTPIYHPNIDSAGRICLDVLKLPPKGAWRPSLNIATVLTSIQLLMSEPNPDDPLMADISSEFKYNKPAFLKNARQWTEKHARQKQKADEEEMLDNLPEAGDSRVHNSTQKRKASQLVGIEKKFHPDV

B1: synthetic Holliday junction (HJ) (structured_DNA)
DNA 1: ATCGATGTCTCTAGACAGCTGCTCAGGATTGATCTGTAATGGCCTGGGA
DNA 2: GTCCCAGGCCATTACAGATCAATCCTGAGCATGTTTACCAAGCGCATTG
DNA 3: TGATCACTTGCTAGCGTCGCAATCCTGAGCAGCTGTCTAGAGACATCGA
DNA 4: CCAATGCGCTTGGTAAACATGCTCAGGATTGCGACGCTAGCAAGTGATC
For the molecule B1, the binding result in series [1] was “binds”.

B2: 5' flapped DNA (structured_DNA)
DNA 1: ATCGATGTCTCTAGACAGCTGCTCAGGATTGATCTGTAATGGCCTGGGA
DNA 2: GTCCCAGGCCATTACAGATCAATCCTGAGCATGTTTACCAAGCGCATTG
DNA 3: CAATGCGCTTGGTAAACA
Regarding B2, the results for the binding result in series [2], in series [3] and in series [4] were “binds”, “no binding” and “no binding”, respectively.
